Patent US20190100518A1 (priority 2016, published 2019)

Columns and labels:
[1] = format: physicochemical
[2] = biological target: T1, lysozyme (Gallus gallus, UniProt P00698); assay: circular dichroism (CD) spectrum, higher-order structure of lysozyme; format: physicochemical; conditions: 25° C.
T1 construct: purchased Sigma-Aldrich L-4919
Protocol: A keto-ABNO-lysozyme conjugate prepared by the same method as in Example 6 was dissolved in water, and the concentration was adjusted to 20 μM to provide an aqueous solution for a test group. On the other hand, lysozyme alone was dissolved in water, and the concentration was adjusted to 20 μM to provide an aqueous solution for a control group.
Using a circular dichroism (CD) dispersion meter Model 202SF (manufactured by AVIV Biomedical, Inc.), the CD spectrum of the aqueous solution in each of the test group and the control group was measured under the following conditions to perform analysis of the higher-order structure of the lysozyme in each aqueous solution.
On the other hand, control group A was prepared in the same manner as in the method described in Example 6 except that the same amount of water was added instead of the aqueous NaNO2 solution. As control group B, lysozyme alone (20 μM) was used. As control group C, a phenylmaleimide-lysozyme conjugate prepared by the method described in Example 15 was used.
Using a circular dichroism (CD) dispersion meter Model 202SF (manufactured by AVIV Biomedical, Inc.), the CD spectrum was measured for each of the test group and the control groups under the following conditions.

[3] = Example 16: 200 to 250 nm, compared with control groups A and B, FIG. 7

T1 sequence (P00698 19-147): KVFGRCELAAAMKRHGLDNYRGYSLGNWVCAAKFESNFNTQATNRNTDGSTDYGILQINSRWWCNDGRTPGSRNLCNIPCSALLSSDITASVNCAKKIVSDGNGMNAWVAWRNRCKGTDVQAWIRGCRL

Compound: [O]N1C2CCCC1CC(=O)C2 [keto-ABNO, keto-azabicyclo[3.3.1]nonane N-oxyl]
- solubility in water [1]: dissolve in water

Compound: phenylmaleimide-lysozyme conjugate: lysozyme bound to phenylmaleimide through a cysteine residue, cysteine modification method comparison [reference compound]
- higher-order structure of lysozyme (waveform of the CD spectrum) [2, 3]: has changed

Compound: keto-ABNO-lysozyme conjugate: lysozyme bound to keto-ABNO at a tryptophan residue, prepared in water with NaNO2 and AcOH
- higher-order structure of lysozyme (waveform of the CD spectrum) ([2]; Example 14: 20 μM in water, 200 to 250 nm, compared with lysozyme alone, FIG. 5): not influenced
- higher-order structure of lysozyme (waveform of the CD spectrum) [2, 3]: maintained
